In article PMC4769027:

Legend:
[1] = target: GASDALIE Fc (G236A/S239D/A330L/I332E IgG1 Fc), expressed as an Fc fragment (human); assay: SPR
[2] = target: SDALIE Fc (S239D/A330L/I332E IgG1 Fc) (human); assay: SPR
FcγRIIb (Homo sapiens) = FcγRIIb (Homo sapiens) (UniProt P31994); assay: SPR; conditions: cited from earlier work
[3] = target: FcγRIIa H131 (Homo sapiens) (UniProt P12318); assay: SPR; conditions: cited from earlier work
[4] = target: FcγRIIIa V158 (Homo sapiens) (UniProt P08637); assay: SPR; conditions: cited from earlier work
[5] = target: FcγRIIIa F158 (Homo sapiens) (UniProt P08637); assay: SPR; conditions: cited from earlier work
[6] = target: FcγRIIa R131 (Homo sapiens) (UniProt P12318); assay: SPR; conditions: cited from earlier work
[7] = target: FcγRIIb ectodomain (human) (UniProt P31994); assay: SPR
[8] = target: FcγRIIIa F158 variant ectodomain (as used in SPR) (human) (UniProt P08637); assay: SPR
[9] = target: FcγRIIa H131 variant ectodomain (human) (UniProt P12318); assay: SPR
[10] = target: FcγRIIa R131 ECD (Homo sapiens) (UniProt P12318); assay: SPR; conditions: cited from earlier work
[11] = target: FcγRIIIa V158 ECD (Homo sapiens) (UniProt P08637); assay: SPR; conditions: cited from earlier work
[12] = target: FcγRIIIa F158 ECD (Homo sapiens) (UniProt P08637); assay: SPR; conditions: cited from earlier work
[13] = target: FcγRIIb ECD (Homo sapiens) (UniProt P31994); assay: SPR; conditions: cited from earlier work
[14] = target: FcγRIIa H131 ECD (Homo sapiens) (UniProt P12318); assay: SPR; conditions: cited from earlier work
[15] = target: FcγRIIIa V158 ECD (Homo sapiens) (UniProt P08637); assay: Competition; conditions: cited from earlier work

FcγRIIIa F158 variant ectodomain (as used in SPR) (from UniProt P08637 17-218) (receptor)
fold improved affinity compared with wtFc [1]: 431 fold
fold improved affinity compared with wtFc [2]: 318 fold

IgG1 Fc Fc (from UniProt P01857)
Kd (FcγRIIb (Homo sapiens)): 2520 nM
Kd [3]: 1380 nM
Kd [4]: 432 nM
Kd [5]: 2950 nM
Kd [6]: 1550 nM

SDALIE Fc (S239D/A330L/I332E IgG1 Fc) (domain or fragment)
Kd [7]: 2190 nM
Kd [8]: 201 nM
Kd [9]: 1490 nM

wtFc (IgG1) Fc (from UniProt P01857)
Kd [10]: 1550 nM
Kd [11]: 432 nM
Kd [12]: 2950 nM
Kd [13]: 2520 nM
Kd [14]: 1380 nM
Kd [15]: 252 nM

wild-type IgG1 Fc (from UniProt P01857 108-328) (domain or fragment)
Kd [8]: 4450 nM

GASDALIE Fc (G236A/S239D/A330L/I332E IgG1 Fc), expressed as an Fc fragment (domain or fragment)
Kd [7]: 3880 nM
Kd [8]: 213 nM
Kd [9]: 1580 nM

FcγRIIa H131 variant ectodomain (from UniProt P12318 34-211) (receptor)
fold improved affinity compared with wtFc [1]: 17 fold
fold tighter binding than SDALIE Fc [1]: 7 fold
fold improved affinity compared with wtFc [2]: 2 fold

FcγRIIb ectodomain (from UniProt P31994 43-217) (receptor)
fold improved affinity compared with wtFc [1]: 6 fold
